{"source": "patent CN108314731A", "about": "(ZHUHAI TAINUO MAIBO BIOTECHNOLOGY CO LTD; GUANGZHOU …, dated 2018)", "binders": {"B1": {"name": "TRN0010抗体 (全人源抗破伤风毒素中和抗体) (antibody, V domains shown)", "VH": "QVQLQESGPGLVKPSETLSLRCTVSGGSISSYYWSWFRQPPGKGLEWIGYVHYSGSTNYNPSLKSRFTLSVDTSKSQFSLRLRSVTAADTAIYYCARDKYQTDVSDIWGQGTVVTVSS", "VL": "DIQMTQSPGTLSLSPGERATLSCRASQSITSSFLAWYQQKPGQAPRLLIYGASSRATGIPDRFSGSGSGTDFILTISRLEPEDFAVYYCQQYDTSRTFGQGTTVEIK"}}, "molecular_target": "破伤风类毒素 (tetanus toxoid) (破伤风杆菌 (Clostridium tetani), UniProt P04958 2-1315)", "sequence (P04958 2-457 limits assumed, chain 1 of 2)": "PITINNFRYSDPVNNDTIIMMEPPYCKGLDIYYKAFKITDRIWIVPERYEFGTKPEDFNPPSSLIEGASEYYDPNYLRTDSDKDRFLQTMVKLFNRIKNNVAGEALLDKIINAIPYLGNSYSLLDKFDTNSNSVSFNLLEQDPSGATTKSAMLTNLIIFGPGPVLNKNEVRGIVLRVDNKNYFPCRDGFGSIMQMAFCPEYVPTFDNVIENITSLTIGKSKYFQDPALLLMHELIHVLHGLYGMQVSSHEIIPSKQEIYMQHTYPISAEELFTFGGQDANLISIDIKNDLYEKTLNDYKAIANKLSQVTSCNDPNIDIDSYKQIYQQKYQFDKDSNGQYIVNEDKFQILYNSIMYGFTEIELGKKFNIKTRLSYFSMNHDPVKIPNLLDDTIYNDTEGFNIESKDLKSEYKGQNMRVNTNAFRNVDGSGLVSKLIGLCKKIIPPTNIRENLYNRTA", "sequence (P04958 458-1315 limits assumed, chain 2 of 2)": "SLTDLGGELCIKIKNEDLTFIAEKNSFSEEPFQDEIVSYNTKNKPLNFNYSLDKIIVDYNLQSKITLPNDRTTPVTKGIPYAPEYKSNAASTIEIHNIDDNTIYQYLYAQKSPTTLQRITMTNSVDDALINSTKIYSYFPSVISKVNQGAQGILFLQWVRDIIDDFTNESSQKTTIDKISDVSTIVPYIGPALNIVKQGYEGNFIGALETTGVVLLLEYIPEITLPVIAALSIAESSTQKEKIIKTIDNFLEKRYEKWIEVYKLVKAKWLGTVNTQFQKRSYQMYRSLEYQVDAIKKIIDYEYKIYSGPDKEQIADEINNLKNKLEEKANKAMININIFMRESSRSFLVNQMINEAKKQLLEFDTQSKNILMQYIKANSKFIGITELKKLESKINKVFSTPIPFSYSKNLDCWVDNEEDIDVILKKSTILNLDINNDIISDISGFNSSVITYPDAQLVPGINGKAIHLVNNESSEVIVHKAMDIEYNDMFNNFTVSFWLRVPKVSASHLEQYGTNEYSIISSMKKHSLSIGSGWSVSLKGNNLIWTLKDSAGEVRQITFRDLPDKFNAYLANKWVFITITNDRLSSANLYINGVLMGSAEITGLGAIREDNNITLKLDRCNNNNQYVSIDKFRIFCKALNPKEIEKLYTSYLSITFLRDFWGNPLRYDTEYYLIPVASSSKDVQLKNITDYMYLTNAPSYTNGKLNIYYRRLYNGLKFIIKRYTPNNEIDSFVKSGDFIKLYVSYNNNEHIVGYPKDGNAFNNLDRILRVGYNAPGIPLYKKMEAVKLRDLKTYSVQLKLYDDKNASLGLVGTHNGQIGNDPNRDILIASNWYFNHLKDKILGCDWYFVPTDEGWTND"}
{"binder": "B1", "values": [{"measurement": "Kd", "value": 3.68, "unit": "nM"}, {"measurement": "koff", "value": 0.000153, "unit": "s⁻¹"}, {"measurement": "kon", "value": 41500, "unit": "M⁻¹ s⁻¹"}]}
